B1: CPEB3 Ribozyme (parent)
chain: UAACAGGGGGCCACAGCAGAAGCGUUCACGUCGCAGCCCCUGUCAGAUUCUGGUGAAUCUGCGAAUUCUGCUGUAUAUCUC

The variants in this data set derive from B1. As to the kind of experiment: self-cleavage, relative activity (ratio to wild type); higher = more cleavage; in vitro, sequencing. In short, it runs like this: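 CPEB3 self-cleaving ribozyme mutant libraries were made by rounds of error-prone PCR, barcoded, and transcribed in vitro with T7 RNA polymerase for 5 hours at 37°C. Cleavage occurred during transcription and a 15 min DNase I step before EDTA stop. RNAs were reverse transcribed with template switching and Illumina-sequenced, with DNA sequencing mapping barcodes to variants. Relative activity is the variant's cleaved/total read fraction divided by wild type's (minimum 5 reads), averaged across three batches.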
Consider C29A U54C, for which the self-cleavage came to 0.45. The figure for A18C A28U is 0.37; for C27G C32U it is 0.17; for A3G U74G it is 1.24.

U26A G33U: the self-cleavage came to 0.1. As for C29G U69A, the self-cleavage came out at 0.13.

For G55A U72C, the self-cleavage stood at 0.83. The figure for G22U G61C is 0.14; for U43A C62U it is 0.39. With G9C U58G, the self-cleavage came to 0.06. The figure for U72C A75U is 1.25; for U72C A75G it is 1.14; for A15U U80C it is 1.03.

Consider G7U A47G, for which the self-cleavage stood at 0.29. The value for A15U A28U was 0.38. The figure for G6A C32A is 0.26; for A47G U78C it is 0.93. The value for C14U A35U was 1.04; that for C23G A77C was 0.27. For A45G U48A, the self-cleavage is 0.39. As for U49G A56G, the self-cleavage was found to be 0.35. The value for G24A A65G was 0.28; that for U26A G61A was 0.73; that for U51G G70A was 0.69. The value for A2U U54G was 0.77; that for A47U A56U was 0.33. The figure for G6C A57G is 0.5; for A18U C29A it is 0.19. Regarding C29A A75G, the self-cleavage was 0.38. The figure for A5G U51C is 0.68; for C23U U54C it is 0.16. For G8U C39U, the self-cleavage came to 0.08. The figure for G52A U66A is 0.66; for C14A A56G it is 1.1; for U41C C81U it is 1.19.

As to U54C U66C, the self-cleavage is 0.37.

Consider U54C G61C, for which the self-cleavage worked out at 0.3. The figure for U31C U41C is 0.82; for A13G A77C it is 0.62; for G16C U72A it is 0.3. The value for C14U A21G was 0.78. The value for A20U C38U was 0.42; that for C34A U69A was 0.07. Regarding A21U G73A, the self-cleavage came out at 0.88. The figure for A21G C71U is 0.32; for G10A C29U it is 0.13; for G10A G53C it is 0.33. The value for U25C G61U was 0.17.

Regarding A65G A77C, the self-cleavage came out at 0.45. The figure for U41C U51C is 1.08. The value for A3G U78A was 1.17; that for A64U G73C was 0.67; that for U31A A64U was 0.29. The figure for U25G U80C is 0.37; for C17A U60A it is 0.26. Take A3U U66C: the self-cleavage stood at 0.55. The figure for A35G U67C is 0.56; for U48A A64U it is 0.14.

Turning to U25C G33C, the self-cleavage was determined as 0.16.

For G53A C79U, the self-cleavage came out at 1.18. The figure for G53A C79A is 1.22; for A3G C11A it is 0.32; for C14U it is 1.15. In the case of G46C U60C, the self-cleavage amounted to 0.2. The value for U48C U54C was 0.4.

A2G G19A: the self-cleavage is 0.58. The figure for C17U is 0.73. The figure for A28U U69G is 0.42; for U76A U78A it is 1.09; for U25A G52A it is 0.22. The value for U60A G63U was 0.53. As to A3G C59A, the self-cleavage worked out at 0.62. The figure for U66C C68U is 0.39; for A3G G10C it is 0.35; for C14U U66A it is 0.52. The value for U41A A47U was 0.3; that for A56G U66G was 0.38; that for A56G U66C was 0.29.

In the case of G24U U25A, the self-cleavage was 0.3.

Consider U41A G61U, for which the self-cleavage is 0.24. The figure for G55A A65U is 0.27.

C4A U67A: the self-cleavage was determined as 1. The figure for A5G G73U is 1.17; for G8U U74A it is 0.41. The figure for U60A C79U is 0.69. The figure for G10C A75G is 0.24.

As for G10U U49G, the self-cleavage was 0.14. The figure for A21G A35U is 0.27; for U49A G63C it is 0.88.

As to A21C A64U, the self-cleavage was 0.07.

As to U1A U48C, the self-cleavage came out at 0.63.

Turning to U25C, the self-cleavage worked out at 0.29. The figure for A57U A64U is 0.21; for A20G U51A it is 0.8.

As to C34A U41G, the self-cleavage was found to be 0.39. The value for U72A A75G was 1.12; that for A5C G9U was 0.52; that for C12U U51C was 1.25. The value for U26A U78A was 0.67.

For A5G U69G, the self-cleavage was 0.49.

Turning to G16A G30A, the self-cleavage stood at 0.06. The figure for A45U C81A is 0.87; for A15C A21G it is 0.49; for A15C A21U it is 0.34. The figure for A64U G70A is 0.21; for U43C G46A it is 0.22. For A5C U74C, the self-cleavage was determined as 1.19. The figure for C29A U41G is 0.43.

C39A U58C: the self-cleavage stood at 0.19.

C12U A28C: the self-cleavage is 0.94.

For the variant G8U A65U, the self-cleavage came out at 0.43. The value for U41G U66C was 0.2; that for A64G G70C was 0.21. The value for A20U U51A was 0.25.

On to U67C G73A, for which the self-cleavage worked out at 0.34. Consider G6A A57U, for which the self-cleavage stood at 0.29. As for U25C U69A, the self-cleavage came to 0.22.

G19U U25G: the self-cleavage was 0.2. The figure for C11A G73A is 1.07; for A21U C71U it is 0.16. The value for G6C G53A was 0.59; that for G6U C59U was 0.09; that for A21G A64C was 0.37. As to A2G G46U, the self-cleavage came out at 0.3.

In the case of A35G G70A, the self-cleavage was determined as 1.13. The figure for U31C G70C is 0.18; for C40A U80C it is 0.24; for A21G G33U it is 0.19. The value for A20U C62U was 0.15; that for A15G G63C was 0.86. The figure for C12U A20G is 1.19; for C12A U25C it is 0.42.

Turning to A57G A65C, the self-cleavage was 0.15. The figure for G16A U31A is 0.19. The figure for A3G G36U is 0.26. The value for U66A U78C was 0.31; that for G7U U51A was 0.21. As for A5C G6U, the self-cleavage is 0.32. The figure for U54C U69G is 0.43; for A45G C62U it is 0.22. Regarding A35G C59U, the self-cleavage turned out to be 1.2. The figure for G6A A45G is 0.14; for A45U C71U it is 0.13. With U41G U54C, the self-cleavage was 0.38.

With G46A U76A, the self-cleavage was found to be 0.5. The value for C17A U31A was 0.15. The figure for C34A G70C is 0.17. The figure for C4U C40U is 0.86; for C11G C71U it is 0.16. Consider A47U U60C, for which the self-cleavage amounted to 0.23. Consider C4A C59A, for which the self-cleavage came to 0.33.

For the variant A15G U54C, the self-cleavage worked out at 0.87. G36U U58C: the self-cleavage was 0.53. The value for C14U A57G was 1.1. The value for U43C U78A was 0.63; that for A20G U74A was 1.19. As for G9U C81U, the self-cleavage was 0.27. With C12G A13G, the self-cleavage was determined as 0.71. The value for C12G A13C was 0.72.

For U58C G70A, the self-cleavage was found to be 0.37. With G52U U74C, the self-cleavage amounted to 1.28. In the case of A21G A65G, the self-cleavage was determined as 0.28. The value for G24A A77U was 0.46. As to G9A U41C, the self-cleavage was determined as 0.43. The value for U60C U72C was 0.53.

Regarding U49C U67G, the self-cleavage turned out to be 0.32.

U58A A65U: the self-cleavage is 0.13.

The values are drawn from the RNAGym collection of RNA variant scans (doi:10.1093/nar/gkz1192).
